# Assay results as given in paper PMC3333781, “Systematic mapping of two component response regulators to gene targets in a model sulfate reducing bacterium”.
# T1: DVU1083 response regulator (PhoB) (Desulfovibrio vulgaris Hildenborough, UniProt Q72D47 1-229)
# T1 sequence: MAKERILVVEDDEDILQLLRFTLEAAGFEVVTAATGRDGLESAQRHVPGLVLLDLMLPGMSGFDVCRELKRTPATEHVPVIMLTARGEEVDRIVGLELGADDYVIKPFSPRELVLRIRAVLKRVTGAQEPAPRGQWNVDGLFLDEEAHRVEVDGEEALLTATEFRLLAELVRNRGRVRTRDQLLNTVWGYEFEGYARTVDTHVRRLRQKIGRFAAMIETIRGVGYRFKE
# T2: DVU3381 response regulator (Desulfovibrio vulgaris Hildenborough, UniProt Q725P3 1-459)
# T2 sequence: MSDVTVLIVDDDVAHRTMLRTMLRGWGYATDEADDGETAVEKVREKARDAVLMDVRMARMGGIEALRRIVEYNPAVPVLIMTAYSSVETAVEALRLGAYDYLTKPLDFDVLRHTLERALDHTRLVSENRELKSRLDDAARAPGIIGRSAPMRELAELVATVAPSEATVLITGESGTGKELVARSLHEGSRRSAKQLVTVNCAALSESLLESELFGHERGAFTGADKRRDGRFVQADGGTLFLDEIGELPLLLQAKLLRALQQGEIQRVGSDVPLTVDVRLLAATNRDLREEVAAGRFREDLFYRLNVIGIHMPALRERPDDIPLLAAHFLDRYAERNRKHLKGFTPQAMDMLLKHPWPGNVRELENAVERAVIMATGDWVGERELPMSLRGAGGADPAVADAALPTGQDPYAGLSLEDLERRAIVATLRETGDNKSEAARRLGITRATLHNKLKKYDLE
# T3: DVU0946 response regulator (Desulfovibrio vulgaris Hildenborough, UniProt Q72DI3 1-476)
# T3 sequence: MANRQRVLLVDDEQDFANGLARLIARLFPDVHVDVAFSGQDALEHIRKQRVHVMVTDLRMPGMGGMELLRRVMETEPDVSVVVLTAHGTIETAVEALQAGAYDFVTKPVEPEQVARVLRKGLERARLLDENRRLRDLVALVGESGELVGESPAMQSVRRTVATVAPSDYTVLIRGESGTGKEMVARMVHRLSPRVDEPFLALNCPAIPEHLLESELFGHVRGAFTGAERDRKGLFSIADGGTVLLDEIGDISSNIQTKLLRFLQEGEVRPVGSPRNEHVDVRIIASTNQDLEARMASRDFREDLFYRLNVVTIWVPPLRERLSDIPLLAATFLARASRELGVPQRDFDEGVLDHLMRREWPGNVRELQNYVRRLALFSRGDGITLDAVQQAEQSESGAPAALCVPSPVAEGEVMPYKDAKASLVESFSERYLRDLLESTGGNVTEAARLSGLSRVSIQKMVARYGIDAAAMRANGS
# T4: DVU0539 response regulator (Desulfovibrio vulgaris Hildenborough, UniProt Q72EN8 1-467)
# T4 sequence: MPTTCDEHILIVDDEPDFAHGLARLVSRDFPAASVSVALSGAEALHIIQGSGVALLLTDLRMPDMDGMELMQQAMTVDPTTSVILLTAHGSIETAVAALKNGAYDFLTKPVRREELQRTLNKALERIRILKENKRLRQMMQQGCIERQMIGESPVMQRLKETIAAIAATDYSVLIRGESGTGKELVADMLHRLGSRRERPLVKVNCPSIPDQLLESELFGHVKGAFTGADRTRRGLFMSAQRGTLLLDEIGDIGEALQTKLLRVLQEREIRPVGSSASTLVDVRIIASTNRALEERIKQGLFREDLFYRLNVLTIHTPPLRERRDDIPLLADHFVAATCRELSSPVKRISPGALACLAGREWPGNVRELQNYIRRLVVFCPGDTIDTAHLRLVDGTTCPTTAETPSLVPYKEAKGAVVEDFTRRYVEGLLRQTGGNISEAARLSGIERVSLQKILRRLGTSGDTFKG
# T5: DVU2588 response regulator (Desulfovibrio vulgaris Hildenborough, UniProt Q728L5 1-226)
# T5 sequence: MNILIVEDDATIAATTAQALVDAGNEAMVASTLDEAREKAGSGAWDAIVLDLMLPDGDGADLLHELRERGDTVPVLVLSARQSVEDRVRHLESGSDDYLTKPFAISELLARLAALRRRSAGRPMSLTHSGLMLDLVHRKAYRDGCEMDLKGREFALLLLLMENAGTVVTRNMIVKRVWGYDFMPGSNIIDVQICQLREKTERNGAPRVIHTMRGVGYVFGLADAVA
# T6: DVU0679 response regulator (Desulfovibrio vulgaris Hildenborough, UniProt Q72E99 1-488)
# T6 sequence: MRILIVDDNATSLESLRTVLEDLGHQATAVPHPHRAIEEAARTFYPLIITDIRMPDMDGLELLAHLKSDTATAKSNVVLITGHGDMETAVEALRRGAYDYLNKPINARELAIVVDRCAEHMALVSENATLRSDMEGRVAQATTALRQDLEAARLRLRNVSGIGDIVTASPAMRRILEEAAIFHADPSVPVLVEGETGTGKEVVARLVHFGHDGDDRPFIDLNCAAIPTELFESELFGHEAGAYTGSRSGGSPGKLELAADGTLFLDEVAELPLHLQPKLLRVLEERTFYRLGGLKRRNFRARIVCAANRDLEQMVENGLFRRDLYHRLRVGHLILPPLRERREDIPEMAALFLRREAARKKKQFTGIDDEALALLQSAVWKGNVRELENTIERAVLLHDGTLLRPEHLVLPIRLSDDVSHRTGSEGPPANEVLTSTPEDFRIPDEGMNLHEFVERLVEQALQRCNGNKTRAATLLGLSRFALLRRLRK
# T7: DVU2934 response regulator (Desulfovibrio vulgaris Hildenborough, UniProt Q727C1 1-472)
# T7 sequence: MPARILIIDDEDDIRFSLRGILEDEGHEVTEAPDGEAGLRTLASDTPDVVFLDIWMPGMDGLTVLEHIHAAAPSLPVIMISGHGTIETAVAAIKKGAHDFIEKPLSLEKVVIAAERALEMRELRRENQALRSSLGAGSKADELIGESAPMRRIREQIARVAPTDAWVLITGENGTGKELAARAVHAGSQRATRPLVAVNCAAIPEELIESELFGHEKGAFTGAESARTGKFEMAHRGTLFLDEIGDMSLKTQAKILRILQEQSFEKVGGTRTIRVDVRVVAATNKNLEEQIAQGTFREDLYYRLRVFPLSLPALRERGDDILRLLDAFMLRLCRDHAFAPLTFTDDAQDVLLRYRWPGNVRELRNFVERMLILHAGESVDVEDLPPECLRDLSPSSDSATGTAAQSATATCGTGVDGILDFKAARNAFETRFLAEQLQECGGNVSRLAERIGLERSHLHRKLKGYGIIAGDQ
# T8: DVU3305 response regulator (Desulfovibrio vulgaris Hildenborough, UniProt Q725X0 1-451)
# T8 sequence: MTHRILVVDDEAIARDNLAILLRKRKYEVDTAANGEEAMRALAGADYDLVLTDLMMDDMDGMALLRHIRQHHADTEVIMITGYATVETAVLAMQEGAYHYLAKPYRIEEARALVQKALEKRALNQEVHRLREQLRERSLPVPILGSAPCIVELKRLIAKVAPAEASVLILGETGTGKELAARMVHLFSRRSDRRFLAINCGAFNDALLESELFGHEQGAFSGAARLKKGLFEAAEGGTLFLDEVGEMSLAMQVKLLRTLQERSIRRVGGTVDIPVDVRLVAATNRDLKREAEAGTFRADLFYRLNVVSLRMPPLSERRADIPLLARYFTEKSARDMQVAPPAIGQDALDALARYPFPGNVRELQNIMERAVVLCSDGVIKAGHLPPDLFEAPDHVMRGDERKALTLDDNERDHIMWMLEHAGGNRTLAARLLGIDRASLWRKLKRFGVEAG
# T9: DVU3023 response regulator (Desulfovibrio vulgaris Hildenborough, UniProt Q726T3 1-474)
# T9 sequence: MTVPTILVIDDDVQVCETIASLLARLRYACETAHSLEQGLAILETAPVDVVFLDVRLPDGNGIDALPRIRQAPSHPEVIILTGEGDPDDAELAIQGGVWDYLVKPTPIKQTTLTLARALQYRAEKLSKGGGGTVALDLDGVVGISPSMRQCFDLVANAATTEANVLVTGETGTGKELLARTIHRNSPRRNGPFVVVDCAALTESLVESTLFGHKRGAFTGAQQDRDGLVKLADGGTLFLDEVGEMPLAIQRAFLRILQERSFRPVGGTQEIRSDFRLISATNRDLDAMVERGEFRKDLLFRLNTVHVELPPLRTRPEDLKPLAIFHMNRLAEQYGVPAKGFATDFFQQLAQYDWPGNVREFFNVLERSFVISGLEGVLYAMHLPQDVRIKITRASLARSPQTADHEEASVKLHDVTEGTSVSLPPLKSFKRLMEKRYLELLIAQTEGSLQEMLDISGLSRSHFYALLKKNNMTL
# B1: DVU1083 motif mut (dsDNA)
# DNA 1: GTTGTAAAATGACAAACGGTTCTAGACGCTCTTCCA
# DNA 2: TGGAAGAGCGTCTAGAACCGTTTGTCATTTTACAAC
# B2: DVU3384 motif mut (dsDNA)
# DNA 1: CACGAATGGAATGTATTTTTCTTGCACCCATACAC
# DNA 2: GTGTATGGGTGCAAGAAAAATACATTCCATTCGTG
# B3: DVU0943 second site mut (dsDNA)
# DNA 1: AAAGGGCTCGACAACAGATGTTCCATGCAAA
# DNA 2: TTTGCATGGAACATCTGTTGTCGAGCCCTTT
# B4: DVU0943 DVU2588-motif mut (dsDNA)
# DNA 1: CGTCCTGCACCTAATCATTCTTAAGTTAAAAGCTGT
# DNA 2: ACAGCTTTTAACTTAAGAATGATTAGGTGCAGGACG
# B5: DVU0677 motif mut (dsDNA)
# DNA 1: AATCGCACGCGGAGAGTATTCGGATGTGCTTTTCCG
# DNA 2: CGGAAAAGCACATCCGAATACTCTCCGCGTGCGATT
# B6: DVU2917 motif mut (dsDNA)
# DNA 1: CTCGCCATGTGGACTGCAGAAGAGAGACTGTGCGTGG
# DNA 2: CCACGCACAGTCTCTCTTCTGCAGTCCACATGGCGAG
# B7: DVU3303 motif mut (dsDNA)
# DNA 1: AAAGCCTCGTCATGGGATATCGTACACGAGGCCAC
# DNA 2: GTGGCCTCGTGTACGATATCCCATGACGAGGCTTT
# B8: DVU3025 motif mut (dsDNA)
# DNA 1: GCCACACGAACTGCGCTTTTCAATCAACGCTACCAC
# DNA 2: GTGGTAGCGTTGATTGAAAAGCGCAGTTCGTGTGGC
# Assays:
# Assay in all cases: EMSA; 10 mM Tris-HCl pH 7.5, 1 mM DTT, 50 mM KCl, 5 mM MgCl2, 25% glycerol, 1 ug/ml poly dI-dC, 50-100 fmol biotinylated DNA, 25-30 C, 20 min
# Details in all cases: protein: recombinant; tags: C-terminal V5-6xHis; chain copies: 2; label: 5'-biotin top strand
# [1] = target: T1, DVU1083 response regulator (PhoB)
# [2] = target: T2, DVU3381 response regulator
# [3] = target: T3, DVU0946 response regulator
# [4] = target: T4, DVU0539 response regulator
# [5] = target: T5, DVU2588 response regulator
# [6] = target: T6, DVU0679 response regulator
# [7] = target: T7, DVU2934 response regulator
# [8] = target: T8, DVU3305 response regulator
# [9] = target: T9, DVU3023 response regulator
binder,measurement,setting,value
B1,binding result,[1],no binding
B2,binding result,[2],no binding
B3,binding result,[3],no binding
same,binding result,[4],no binding
B4,binding result,[5],no binding
B5,binding result,[6],no binding
B6,binding result,[7],no binding
B7,binding result,[8],no binding
B8,binding result,[9],no binding
